Results published in patent US20140072613A1, “Compositions and Methods for Treating Cutaneous Scarring” (priority 2012, published 2014).

Key:
Test in all cases: biochemical
Type in all cases: biochemical
[1] = molecular target: T1, 266 human kinases (Homo sapiens, UniProt Q9NWZ3); details: IRAK4(h); 100 μM
T1 sequence (Q9NWZ3 1-460): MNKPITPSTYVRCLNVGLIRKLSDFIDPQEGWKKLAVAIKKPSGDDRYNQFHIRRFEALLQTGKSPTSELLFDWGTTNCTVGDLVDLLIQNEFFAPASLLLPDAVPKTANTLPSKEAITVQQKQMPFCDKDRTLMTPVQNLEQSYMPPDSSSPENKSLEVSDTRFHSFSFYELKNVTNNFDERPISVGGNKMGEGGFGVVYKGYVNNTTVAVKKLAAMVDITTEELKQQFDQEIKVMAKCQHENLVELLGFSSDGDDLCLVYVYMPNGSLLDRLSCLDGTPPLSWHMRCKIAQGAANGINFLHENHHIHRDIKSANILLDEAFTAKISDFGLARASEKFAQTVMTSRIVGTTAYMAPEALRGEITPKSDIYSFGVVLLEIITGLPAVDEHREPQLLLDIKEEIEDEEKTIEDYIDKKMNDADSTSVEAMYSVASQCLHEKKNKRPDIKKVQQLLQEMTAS
Outline: (§1)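 Kinase phosphorylates cationic substrate with radiolabelled ATP phosphate; substrate retained on anionic filter membrane; scintillation count; % of 100% activity control.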

[2] = molecular target: 266 human kinases (Homo sapiens, UniProt P08581, Y1230H); details: Met(Y1248H)(h); 100 μM
Outline: as §1

[3] = molecular target: 266 human kinases (Homo sapiens, UniProt P48730); details: CK1δ(h); 100 μM
Outline: as §1

[4] = molecular target: 266 human kinases (Homo sapiens, UniProt P42685); details: PTK5(h); 100 μM
Outline: as §1

[5] = molecular target: T2, 266 human kinases (Homo sapiens, UniProt Q8NG66); details: NEK11(h); 100 μM
T2 sequence (Q8NG66 1-645): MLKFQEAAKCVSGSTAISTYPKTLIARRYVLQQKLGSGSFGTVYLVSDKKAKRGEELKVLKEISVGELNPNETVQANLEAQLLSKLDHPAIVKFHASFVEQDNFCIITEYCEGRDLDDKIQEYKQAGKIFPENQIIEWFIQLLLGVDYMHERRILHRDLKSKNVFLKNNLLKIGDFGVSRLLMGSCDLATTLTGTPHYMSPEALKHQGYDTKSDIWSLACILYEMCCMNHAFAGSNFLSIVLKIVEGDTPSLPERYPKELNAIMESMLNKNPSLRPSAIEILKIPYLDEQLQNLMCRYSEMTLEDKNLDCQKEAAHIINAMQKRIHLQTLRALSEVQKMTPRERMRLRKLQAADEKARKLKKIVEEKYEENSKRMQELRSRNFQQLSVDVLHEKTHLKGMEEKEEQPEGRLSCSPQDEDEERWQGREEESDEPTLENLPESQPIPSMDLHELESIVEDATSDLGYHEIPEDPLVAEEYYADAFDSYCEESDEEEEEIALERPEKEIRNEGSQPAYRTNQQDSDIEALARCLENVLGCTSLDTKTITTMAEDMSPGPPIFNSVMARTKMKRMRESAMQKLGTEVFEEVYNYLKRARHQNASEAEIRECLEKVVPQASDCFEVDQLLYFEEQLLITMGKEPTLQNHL
Outline: as §1

[6] = molecular target: 266 human kinases (Homo sapiens, UniProt Q8WTQ7); details: GRK7(h); 100 μM
Outline: as §1

[7] = molecular target: 266 human kinases (Homo sapiens, UniProt P05129); details: PKCγ(h); 100 μM
Outline: as §1

[8] = molecular target: 266 human kinases (Homo sapiens, UniProt P43405); details: Syk(h); 100 μM
Outline: as §1

[9] = molecular target: 266 human kinases (Homo sapiens, UniProt Q9Y3S1); details: WNK2(h); 100 μM
Outline: as §1

[10] = molecular target: 266 human kinases (Homo sapiens, UniProt P42684); details: Arg(h); 100 μM
Outline: as §1

[11] = molecular target: T3, 266 human kinases (Homo sapiens, UniProt Q8IYT8); details: ULK2(h); 100 μM
T3 sequence (Q8IYT8 1-1036): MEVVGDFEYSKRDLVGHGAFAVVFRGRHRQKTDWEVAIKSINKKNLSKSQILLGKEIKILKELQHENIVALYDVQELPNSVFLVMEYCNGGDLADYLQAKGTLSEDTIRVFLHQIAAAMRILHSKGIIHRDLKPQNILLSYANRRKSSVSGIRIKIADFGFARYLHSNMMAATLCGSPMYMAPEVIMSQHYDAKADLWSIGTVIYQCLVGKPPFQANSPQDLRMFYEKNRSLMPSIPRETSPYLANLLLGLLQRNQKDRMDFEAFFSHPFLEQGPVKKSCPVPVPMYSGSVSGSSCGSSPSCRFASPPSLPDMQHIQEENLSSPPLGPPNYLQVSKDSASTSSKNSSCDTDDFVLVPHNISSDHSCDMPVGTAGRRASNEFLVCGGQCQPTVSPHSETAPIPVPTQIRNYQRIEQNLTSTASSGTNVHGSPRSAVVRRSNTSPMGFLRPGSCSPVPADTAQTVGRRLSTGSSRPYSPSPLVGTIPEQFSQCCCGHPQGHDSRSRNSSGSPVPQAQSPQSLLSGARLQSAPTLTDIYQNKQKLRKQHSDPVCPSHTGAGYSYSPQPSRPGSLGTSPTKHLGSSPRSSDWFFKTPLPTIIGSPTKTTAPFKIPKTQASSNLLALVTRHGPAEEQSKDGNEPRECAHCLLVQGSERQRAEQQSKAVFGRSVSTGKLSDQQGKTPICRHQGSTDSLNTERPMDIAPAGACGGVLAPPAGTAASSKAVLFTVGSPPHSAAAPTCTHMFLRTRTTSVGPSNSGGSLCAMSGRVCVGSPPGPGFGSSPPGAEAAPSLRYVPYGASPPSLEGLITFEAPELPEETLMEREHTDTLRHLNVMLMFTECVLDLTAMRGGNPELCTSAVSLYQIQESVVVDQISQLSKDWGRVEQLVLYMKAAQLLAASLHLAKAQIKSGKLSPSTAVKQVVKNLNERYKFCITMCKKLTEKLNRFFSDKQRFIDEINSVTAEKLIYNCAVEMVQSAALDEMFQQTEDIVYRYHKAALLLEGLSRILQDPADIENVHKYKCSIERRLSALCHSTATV
Outline: as §1

Sequence of 266 human kinases (Homo sapiens, UniProt Q9Y3S1) (Q9Y3S1 whole entry): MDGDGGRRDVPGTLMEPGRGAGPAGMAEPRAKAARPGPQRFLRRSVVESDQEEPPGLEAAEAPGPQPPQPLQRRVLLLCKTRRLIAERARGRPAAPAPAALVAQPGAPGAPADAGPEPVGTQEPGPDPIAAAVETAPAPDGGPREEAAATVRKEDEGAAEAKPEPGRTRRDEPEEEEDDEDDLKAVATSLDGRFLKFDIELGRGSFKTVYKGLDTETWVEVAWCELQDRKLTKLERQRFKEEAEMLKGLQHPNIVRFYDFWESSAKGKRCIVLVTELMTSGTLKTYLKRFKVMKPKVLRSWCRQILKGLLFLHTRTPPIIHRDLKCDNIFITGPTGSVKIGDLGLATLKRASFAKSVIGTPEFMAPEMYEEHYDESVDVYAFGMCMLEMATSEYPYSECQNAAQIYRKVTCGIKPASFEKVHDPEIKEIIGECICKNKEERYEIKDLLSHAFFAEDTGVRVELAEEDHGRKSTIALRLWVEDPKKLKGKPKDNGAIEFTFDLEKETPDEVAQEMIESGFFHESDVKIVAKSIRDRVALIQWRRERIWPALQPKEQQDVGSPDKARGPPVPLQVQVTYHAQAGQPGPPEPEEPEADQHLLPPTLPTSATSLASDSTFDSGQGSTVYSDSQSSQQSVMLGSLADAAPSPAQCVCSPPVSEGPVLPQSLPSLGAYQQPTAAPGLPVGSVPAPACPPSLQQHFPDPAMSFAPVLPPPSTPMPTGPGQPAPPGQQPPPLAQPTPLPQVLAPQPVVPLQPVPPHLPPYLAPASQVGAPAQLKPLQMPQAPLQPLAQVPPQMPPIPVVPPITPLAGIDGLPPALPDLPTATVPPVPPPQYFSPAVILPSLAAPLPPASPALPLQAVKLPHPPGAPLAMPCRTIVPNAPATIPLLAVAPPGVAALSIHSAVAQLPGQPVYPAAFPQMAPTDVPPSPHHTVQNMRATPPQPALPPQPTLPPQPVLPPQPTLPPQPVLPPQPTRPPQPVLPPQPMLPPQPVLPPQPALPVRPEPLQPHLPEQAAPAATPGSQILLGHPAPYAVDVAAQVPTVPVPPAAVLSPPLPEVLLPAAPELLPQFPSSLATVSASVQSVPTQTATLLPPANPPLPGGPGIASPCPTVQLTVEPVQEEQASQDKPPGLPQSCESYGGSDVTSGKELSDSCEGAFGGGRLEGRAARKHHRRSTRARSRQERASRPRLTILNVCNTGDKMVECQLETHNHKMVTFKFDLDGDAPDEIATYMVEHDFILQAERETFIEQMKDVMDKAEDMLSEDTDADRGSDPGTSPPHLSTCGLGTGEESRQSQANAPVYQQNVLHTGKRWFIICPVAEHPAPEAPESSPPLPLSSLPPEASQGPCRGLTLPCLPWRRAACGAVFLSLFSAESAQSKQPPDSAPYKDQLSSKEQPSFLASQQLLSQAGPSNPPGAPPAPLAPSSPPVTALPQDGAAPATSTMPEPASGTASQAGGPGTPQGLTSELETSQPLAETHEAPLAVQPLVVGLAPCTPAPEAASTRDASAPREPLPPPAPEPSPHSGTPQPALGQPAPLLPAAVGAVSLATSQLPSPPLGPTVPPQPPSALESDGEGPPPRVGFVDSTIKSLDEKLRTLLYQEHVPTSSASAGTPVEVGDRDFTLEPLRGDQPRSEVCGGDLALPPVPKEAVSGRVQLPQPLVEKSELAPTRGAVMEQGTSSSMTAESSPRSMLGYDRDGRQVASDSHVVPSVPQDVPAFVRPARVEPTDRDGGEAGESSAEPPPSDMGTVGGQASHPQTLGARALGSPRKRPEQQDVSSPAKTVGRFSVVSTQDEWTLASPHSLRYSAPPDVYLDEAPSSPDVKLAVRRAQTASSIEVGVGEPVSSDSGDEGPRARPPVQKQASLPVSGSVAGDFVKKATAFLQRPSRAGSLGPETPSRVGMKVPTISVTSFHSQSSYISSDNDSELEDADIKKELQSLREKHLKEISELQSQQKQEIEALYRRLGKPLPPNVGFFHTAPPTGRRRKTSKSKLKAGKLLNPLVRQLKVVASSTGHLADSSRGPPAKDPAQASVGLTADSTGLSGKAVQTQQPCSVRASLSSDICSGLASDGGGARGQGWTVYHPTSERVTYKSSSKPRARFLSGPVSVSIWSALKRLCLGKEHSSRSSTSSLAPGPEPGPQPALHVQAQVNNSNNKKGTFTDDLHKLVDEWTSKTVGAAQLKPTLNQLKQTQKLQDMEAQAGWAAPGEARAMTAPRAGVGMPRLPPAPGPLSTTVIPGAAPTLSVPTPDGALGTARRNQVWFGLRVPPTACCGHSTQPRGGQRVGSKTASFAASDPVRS
Sequence of 266 human kinases (Homo sapiens, UniProt P42684) (P42684 whole entry): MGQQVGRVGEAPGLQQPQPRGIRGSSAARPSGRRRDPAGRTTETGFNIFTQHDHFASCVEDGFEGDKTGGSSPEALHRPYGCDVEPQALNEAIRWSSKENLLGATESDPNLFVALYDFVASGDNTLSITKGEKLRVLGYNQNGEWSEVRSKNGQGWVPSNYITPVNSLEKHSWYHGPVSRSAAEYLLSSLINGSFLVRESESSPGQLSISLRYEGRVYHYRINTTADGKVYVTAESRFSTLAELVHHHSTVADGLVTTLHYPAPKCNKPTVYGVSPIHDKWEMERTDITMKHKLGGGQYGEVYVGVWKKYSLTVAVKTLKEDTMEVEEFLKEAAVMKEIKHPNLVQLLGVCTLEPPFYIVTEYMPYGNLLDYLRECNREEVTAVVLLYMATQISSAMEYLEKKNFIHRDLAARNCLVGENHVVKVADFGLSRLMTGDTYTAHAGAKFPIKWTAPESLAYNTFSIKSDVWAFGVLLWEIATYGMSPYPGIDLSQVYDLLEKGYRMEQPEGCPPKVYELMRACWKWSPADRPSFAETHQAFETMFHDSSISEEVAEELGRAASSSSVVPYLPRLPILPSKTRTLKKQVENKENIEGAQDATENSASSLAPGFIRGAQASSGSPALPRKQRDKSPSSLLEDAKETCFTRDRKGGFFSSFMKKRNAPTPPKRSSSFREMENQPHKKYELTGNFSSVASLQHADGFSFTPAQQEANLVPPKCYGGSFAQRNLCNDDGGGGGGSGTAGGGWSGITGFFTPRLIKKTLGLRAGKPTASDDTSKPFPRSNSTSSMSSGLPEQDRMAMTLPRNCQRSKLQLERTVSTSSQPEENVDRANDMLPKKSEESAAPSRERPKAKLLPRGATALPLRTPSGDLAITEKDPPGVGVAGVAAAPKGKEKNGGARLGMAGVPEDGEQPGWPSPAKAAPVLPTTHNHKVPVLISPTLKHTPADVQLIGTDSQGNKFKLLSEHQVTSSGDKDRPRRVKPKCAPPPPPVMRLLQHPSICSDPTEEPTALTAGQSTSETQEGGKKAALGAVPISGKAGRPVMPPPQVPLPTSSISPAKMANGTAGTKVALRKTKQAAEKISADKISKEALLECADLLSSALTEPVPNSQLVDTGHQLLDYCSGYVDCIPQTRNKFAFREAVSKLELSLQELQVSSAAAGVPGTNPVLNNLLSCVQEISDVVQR
Sequence of 266 human kinases (Homo sapiens, UniProt P42685) (P42685 whole entry): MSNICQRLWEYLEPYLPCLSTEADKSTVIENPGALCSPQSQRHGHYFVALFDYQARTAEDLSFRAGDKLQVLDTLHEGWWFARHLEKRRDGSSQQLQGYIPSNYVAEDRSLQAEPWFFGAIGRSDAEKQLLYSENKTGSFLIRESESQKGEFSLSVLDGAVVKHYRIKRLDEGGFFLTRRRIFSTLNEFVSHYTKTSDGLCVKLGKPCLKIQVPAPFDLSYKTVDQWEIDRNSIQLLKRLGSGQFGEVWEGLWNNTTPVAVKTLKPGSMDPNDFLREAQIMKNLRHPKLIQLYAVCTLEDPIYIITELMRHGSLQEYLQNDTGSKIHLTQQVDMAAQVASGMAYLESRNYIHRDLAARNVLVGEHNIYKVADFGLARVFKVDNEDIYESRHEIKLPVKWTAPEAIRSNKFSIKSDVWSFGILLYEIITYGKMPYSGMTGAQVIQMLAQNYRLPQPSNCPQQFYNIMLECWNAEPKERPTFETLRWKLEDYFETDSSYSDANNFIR
Sequence of 266 human kinases (Homo sapiens, UniProt P48730) (P48730 whole entry): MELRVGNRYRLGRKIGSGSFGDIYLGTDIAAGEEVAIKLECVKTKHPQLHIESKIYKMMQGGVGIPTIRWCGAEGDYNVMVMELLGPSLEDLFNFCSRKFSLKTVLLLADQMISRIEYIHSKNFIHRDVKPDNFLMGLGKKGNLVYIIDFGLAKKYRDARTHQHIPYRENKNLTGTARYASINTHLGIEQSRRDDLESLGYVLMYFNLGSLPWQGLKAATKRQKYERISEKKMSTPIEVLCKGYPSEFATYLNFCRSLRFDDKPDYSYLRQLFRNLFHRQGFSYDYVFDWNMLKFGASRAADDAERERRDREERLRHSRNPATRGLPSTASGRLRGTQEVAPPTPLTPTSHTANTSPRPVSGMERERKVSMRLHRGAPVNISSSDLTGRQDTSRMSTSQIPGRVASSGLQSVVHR

| Sequence | % activity [1] | % activity [2] | % activity [3] | % activity [4] | % activity [5] | % activity [6] | % activity [7] | % activity [8] | % activity [9] | % activity [10] | % activity [11] |
| --- | --- | --- | --- | --- | --- | --- | --- | --- | --- | --- | --- |
| HRRIKAWLKKIKALARQLGVAA (mammal) [MMI-0500] | 3% | 126% | 78% | 96% | 2% | 93% | 6% | 5% | 8% | 22% | 124% |
| YARAAARQARAKALNRQLGVA (mammal) [MMI-0200] | 110% | 153% | 92% | 108% | 95% | 124% | 101% | 36% | 94% | 82% | 132% |
